Source: publication PMC5493754, “Myosin 7 and its adaptors link cadherins to actin” (Nature Communications, 2017)

T1: YFP-Full length (FL)-harmonin (harmonin-a1) (human, UniProt Q9Y6N9-1 1-552)
T1 construct: Harmonin-a1 (USH1C), human, residues 1-552 of UniProt Q9Y6N9-1; also called ^YFPFL (isoA); ^YFPFL; source: E. coli BL21 (DE3) Rosetta, purified (Glutathione Sepharose 4B, size-exclusion chromatography)
T1 sequence (looked up): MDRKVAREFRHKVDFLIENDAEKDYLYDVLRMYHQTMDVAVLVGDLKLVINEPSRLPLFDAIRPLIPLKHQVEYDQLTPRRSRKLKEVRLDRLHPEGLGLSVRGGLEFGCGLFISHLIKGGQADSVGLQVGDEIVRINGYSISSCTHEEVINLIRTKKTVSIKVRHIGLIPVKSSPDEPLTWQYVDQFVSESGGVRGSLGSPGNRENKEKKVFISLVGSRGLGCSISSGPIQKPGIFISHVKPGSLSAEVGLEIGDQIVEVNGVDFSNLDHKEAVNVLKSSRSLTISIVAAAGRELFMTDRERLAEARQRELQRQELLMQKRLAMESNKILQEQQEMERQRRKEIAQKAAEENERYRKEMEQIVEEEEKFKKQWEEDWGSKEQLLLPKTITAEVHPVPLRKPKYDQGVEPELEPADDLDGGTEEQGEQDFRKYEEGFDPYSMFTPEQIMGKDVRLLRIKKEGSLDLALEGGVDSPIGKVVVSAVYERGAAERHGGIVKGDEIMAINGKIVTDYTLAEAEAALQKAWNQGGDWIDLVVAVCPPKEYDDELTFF

T2: Myosin 7b MF2 (human, UniProt Q6PIF6 1605-2116)
T2 construct: also called M7b MF2; Myo7b MF2; source: E. coli (BL21-AI, BL21 (DE3) Rosetta or BL21-Gold (DE3)), purified (Histrap, CaptoQ, gel filtration)
T2 sequence (looked up): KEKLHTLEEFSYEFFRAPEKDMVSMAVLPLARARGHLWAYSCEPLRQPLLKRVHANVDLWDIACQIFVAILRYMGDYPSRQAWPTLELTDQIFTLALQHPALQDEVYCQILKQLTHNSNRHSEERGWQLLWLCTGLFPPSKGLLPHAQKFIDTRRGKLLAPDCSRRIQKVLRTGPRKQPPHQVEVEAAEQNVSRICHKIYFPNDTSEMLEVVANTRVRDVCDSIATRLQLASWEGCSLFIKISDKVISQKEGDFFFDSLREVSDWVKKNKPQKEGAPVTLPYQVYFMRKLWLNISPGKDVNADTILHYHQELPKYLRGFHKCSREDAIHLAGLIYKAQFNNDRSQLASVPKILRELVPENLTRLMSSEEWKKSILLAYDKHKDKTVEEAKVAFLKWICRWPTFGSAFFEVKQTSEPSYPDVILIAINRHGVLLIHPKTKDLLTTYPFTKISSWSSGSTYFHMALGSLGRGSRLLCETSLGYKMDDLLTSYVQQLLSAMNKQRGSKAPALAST

T3: FL-harmonin-ΔCter (human, UniProt Q9Y6N9-1 1-542)
T3 construct: Harmonin-a1 (USH1C), human, residues 1-542 of UniProt Q9Y6N9-1; also called FL ΔCter; source: E. coli BL21 (DE3) Rosetta, purified (Glutathione Sepharose 4B, size-exclusion chromatography)
T3 sequence (looked up): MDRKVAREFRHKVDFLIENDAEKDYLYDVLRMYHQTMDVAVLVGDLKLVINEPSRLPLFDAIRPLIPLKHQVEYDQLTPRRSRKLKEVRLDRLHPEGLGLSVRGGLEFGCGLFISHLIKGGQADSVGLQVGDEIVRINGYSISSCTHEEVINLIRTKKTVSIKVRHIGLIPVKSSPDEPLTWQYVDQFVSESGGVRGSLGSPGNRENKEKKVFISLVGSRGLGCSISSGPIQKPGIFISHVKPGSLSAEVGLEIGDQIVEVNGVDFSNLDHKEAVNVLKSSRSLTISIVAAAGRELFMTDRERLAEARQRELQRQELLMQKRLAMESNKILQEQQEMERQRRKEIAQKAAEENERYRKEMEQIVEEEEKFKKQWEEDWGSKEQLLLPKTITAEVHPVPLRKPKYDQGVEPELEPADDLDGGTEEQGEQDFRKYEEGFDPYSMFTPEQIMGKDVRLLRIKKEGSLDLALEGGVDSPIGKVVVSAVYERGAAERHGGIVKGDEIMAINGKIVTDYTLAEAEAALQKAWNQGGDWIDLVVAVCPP

T4: Full length (FL)-harmonin (harmonin-a1) (human, UniProt Q9Y6N9-1 1-552)
T4 construct: Harmonin-a1 (USH1C), human, residues 1-552 of UniProt Q9Y6N9-1; also called FL-harmonin-a; source: E. coli BL21 (DE3) Rosetta, purified (Glutathione Sepharose 4B, size-exclusion chromatography)
T4 sequence (looked up): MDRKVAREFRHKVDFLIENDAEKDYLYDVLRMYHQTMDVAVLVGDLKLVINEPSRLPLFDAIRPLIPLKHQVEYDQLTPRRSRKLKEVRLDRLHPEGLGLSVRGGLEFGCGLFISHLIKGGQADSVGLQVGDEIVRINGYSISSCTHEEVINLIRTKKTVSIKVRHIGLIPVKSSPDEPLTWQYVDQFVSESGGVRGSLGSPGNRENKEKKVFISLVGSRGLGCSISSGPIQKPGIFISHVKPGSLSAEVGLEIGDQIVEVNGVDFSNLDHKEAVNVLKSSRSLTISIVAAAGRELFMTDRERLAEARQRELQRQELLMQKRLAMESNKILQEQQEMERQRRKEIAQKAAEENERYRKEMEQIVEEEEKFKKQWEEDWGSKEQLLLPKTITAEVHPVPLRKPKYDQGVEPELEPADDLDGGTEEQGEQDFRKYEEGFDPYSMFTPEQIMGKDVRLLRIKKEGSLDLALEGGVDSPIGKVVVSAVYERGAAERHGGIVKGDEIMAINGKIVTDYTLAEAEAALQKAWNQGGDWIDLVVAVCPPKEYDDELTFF


What was measured:
Settings in all cases: both partners purified
[1] = target: T1, YFP-Full length (FL)-harmonin …; experiment: MST; as a1 but 150 mM NaCl (for FL-Harmonin-a); YFP-fused partner constant at 100 nM, non-fluorescent protein titrated
Myosin 7b MF2 = target: T2, Myosin 7b MF2; experiment: MST; YFP-fused partner constant at 100 nM, non-fluorescent protein titrated (16 two-fold dilutions); 20 mM Hepes pH 7.0, 100 mM NaCl, 1 mM EGTA, 0.5 mM TCEP, 0.05% Tween 20; Monolith NT.115
FL-harmonin-ΔCter = target: T3, FL-harmonin-ΔCter; experiment: MST; as a1 but 150 mM NaCl (for FL-Harmonin-a); YFP-fused partner constant at 100 nM, non-fluorescent protein titrated
[2] = target: T4, Full length (FL)-harmonin (harmonin-a1); experiment: as above

Kd [1] [nM]	Kd (Myosin 7b MF2) [nM]	Kd (FL-harmonin-ΔCter) [nM]	Kd [2] [nM]	Binder
1400	–	–	–	Harmonin-a PDZ3c (non-fluorescent, as used in MST) (domain or fragment, human, UniProt Q9Y6N9-1 428-552, looked up, Harmonin-a1 (USH1C), human, PDZ3 plus C-terminal peptide, residues 428-552 of UniProt Q9Y6N9-1; The methods say only that samples for ITC or crystallisation were digested with TEV protease; also called PDZ3c (isoA); source: E. coli BL21 (DE3) Rosetta, purified (Glutathione Sepharose 4B, size-exclusion chromatography)) QDFRKYEEGFDPYSMFTPEQIMGKDVRLLRIKKEGSLDLALEGGVDSPIGKVVVSAVYERGAAERHGGIVKGDEIMAINGKIVTDYTLAEAEAALQKAWNQGGDWIDLVVAVCPPKEYDDELTFF
–	1900 ± 600	2300	1900	YFP-Harmonin-a PDZ3c (domain or fragment, human, UniProt Q9Y6N9-1 428-552, looked up, Harmonin-a1 (USH1C), human, residues 428-552 of UniProt Q9Y6N9-1; also called ^YFPPDZ3c (isoA); source: E. coli BL21 (DE3) Rosetta, purified (Glutathione Sepharose 4B, size-exclusion chromatography)) QDFRKYEEGFDPYSMFTPEQIMGKDVRLLRIKKEGSLDLALEGGVDSPIGKVVVSAVYERGAAERHGGIVKGDEIMAINGKIVTDYTLAEAEAALQKAWNQGGDWIDLVVAVCPPKEYDDELTFF
